The text below walks through data of publication PMC3824679 (Cell Death & Disease, 2013).

In the assay the target is T1, GST-RanBP2-M1_(900–1826) (human, UniProt P49792 900-1826).
T1 sequence (looked up): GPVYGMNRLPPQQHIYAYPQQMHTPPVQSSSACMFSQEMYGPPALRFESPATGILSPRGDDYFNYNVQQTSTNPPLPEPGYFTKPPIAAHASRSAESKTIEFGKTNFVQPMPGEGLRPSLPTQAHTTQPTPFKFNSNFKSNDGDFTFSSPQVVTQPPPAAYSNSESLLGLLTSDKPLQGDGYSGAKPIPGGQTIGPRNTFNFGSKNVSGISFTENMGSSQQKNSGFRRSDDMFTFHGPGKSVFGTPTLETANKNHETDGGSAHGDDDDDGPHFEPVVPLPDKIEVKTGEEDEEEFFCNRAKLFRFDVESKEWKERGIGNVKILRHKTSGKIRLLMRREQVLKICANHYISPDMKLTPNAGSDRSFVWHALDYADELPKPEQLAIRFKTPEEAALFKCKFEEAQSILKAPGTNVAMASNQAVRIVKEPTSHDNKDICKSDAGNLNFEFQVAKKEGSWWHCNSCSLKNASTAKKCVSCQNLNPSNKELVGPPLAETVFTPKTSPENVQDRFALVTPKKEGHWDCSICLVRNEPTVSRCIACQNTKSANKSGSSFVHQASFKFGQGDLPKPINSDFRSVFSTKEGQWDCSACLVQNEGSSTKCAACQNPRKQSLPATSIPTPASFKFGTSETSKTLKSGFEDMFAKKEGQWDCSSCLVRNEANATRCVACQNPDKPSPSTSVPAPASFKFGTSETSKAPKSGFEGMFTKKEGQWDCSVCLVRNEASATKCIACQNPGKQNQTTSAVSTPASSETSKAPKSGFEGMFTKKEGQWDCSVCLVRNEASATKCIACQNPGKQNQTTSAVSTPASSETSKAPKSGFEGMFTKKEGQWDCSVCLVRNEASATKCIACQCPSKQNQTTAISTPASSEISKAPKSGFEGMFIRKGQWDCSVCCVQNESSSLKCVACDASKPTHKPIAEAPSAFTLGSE
The assay is described as follows: pull-down.

B1: His-Imp-β1-N2_(1–650) (domain or fragment, human, UniProt Q14974 1-650, looked up)
chain: MELITILEKTVSPDRLELEAAQKFLERAAVENLPTFLVELSRVLANPGNSQVARVAAGLQIKNSLTSKDPDIKAQYQQRWLAIDANARREVKNYVLQTLGTETYRPSSASQCVAGIACAEIPVNQWPELIPQLVANVTNPNSTEHMKESTLEAIGYICQDIDPEQLQDKSNEILTAIIQGMRKEEPSNNVKLAATNALLNSLEFTKANFDKESERHFIMQVVCEATQCPDTRVRVAALQNLVKIMSLYYQYMETYMGPALFAITIEAMKSDIDEVALQGIEFWSNVCDEEMDLAIEASEAAEQGRPPEHTSKFYAKGALQYLVPILTQTLTKQDENDDDDDWNPCKAAGVCLMLLATCCEDDIVPHVLPFIKEHIKNPDWRYRDAAVMAFGCILEGPEPSQLKPLVIQAMPTLIELMKDPSVVVRDTAAWTVGRICELLPEAAINDVYLAPLLQCLIEGLSAEPRVASNVCWAFSSLAEAAYEAADVADDQEEPATYCLSSSFELIVQKLLETTDRPDGHQNNLRSSAYESLMEIVKNSAKDCYPAVQKTTLVIMERLQQVLQMESHIQSTSDRIQFNDLQSLLCATLQNVLRKVQHQDALQISDVVMASLLRMFQSTAGSGGVQEDALMAVSTLVEVLGGEFLKYMEAF
B1: the binding result was “binds”.
